Data set [1] has as its target glucose oxidase. Nature of the data set: glucose oxidase capture on discs with IgG polymer, illuminated against nonilluminated.
The target of data set [2] is glucose oxidase. Kind of data set: polyester discs with IgG polymer, illuminated, washed; glucose oxidase at 0.1 mg/ml 1 h, washed; bound glucose oxidase read with glucose/HRP/TMB; n=5, SEM 0.059.
For data set [3], the target named is glucose oxidase. Nature of the data set: polyester discs with IgG polymer, not illuminated, washed; glucose oxidase at 0.1 mg/ml 1 h, washed; bound glucose oxidase read with glucose/HRP/TMB; n=5, SEM 0.021.
Data set [4] deals with hirudin polymer (photoreactive polyacrylamide containing hirudin ligands).
Data set [5] has as its target bovine thrombin (bovine) (UniProt P00735). Nature of the data set: cell-based or functional assay.
Data set [6] deals with tritium labeled human thrombin (human) (UniProt P00734). Kind of data set: 3H-thrombin binding, PE coated with 25 µg/cm^2 hirudin polymer against uncoated PE.
The target is the same in data set [7]. Nature of the data set: 3H-thrombin binding, PU coated with 25 µg/cm^2 hirudin polymer against uncoated PU.
Data set [8] has the same target. Kind of data set: 3H-thrombin at 2 µg/ml, 1 h, on PE coated with photoimmobilized hirudin polymer (25 µg/cm^2 added); scintillation counting.
Data set [9] has the same target. Kind of data set: 3H-thrombin at 2 µg/ml, 1 h, on PU coated with photoimmobilized hirudin polymer (25 µg/cm^2 added); scintillation counting.
For data set [10] the target is unchanged. Nature of the data set: 3H-thrombin at 2 µg/ml, 1 h, on PE coated with photoimmobilized hirudin polymer (1.0 µg/cm^2 added); scintillation counting.
For data set [11] the target is unchanged. Nature of the data set: 3H-thrombin at 2 µg/ml, 1 h, on PE coated with photoimmobilized hirudin polymer (5.0 µg/cm^2 added); scintillation counting.
For data set [12] the target is unchanged. Nature of the data set: 3H-thrombin at 2 µg/ml, 1 h, on PU coated with photoimmobilized hirudin polymer (1.0 µg/cm^2 added); scintillation counting.
Data set [13] has the same target. Kind of data set: 3H-thrombin at 2 µg/ml, 1 h, on PU coated with photoimmobilized hirudin polymer (5.0 µg/cm^2 added); scintillation counting.
For data set [14] the target is unchanged. Nature of the data set: 3H-thrombin at 2 µg/ml, 1 h, on SR coated with photoimmobilized hirudin polymer (1.0 µg/cm^2 added); scintillation counting.
The target is the same in data set [15]. Nature of the data set: 3H-thrombin at 2 µg/ml, 1 h, on SR coated with photoimmobilized hirudin polymer (5.0 µg/cm^2 added); scintillation counting.
Data set [16] deals with biotin derivatized horseradish peroxidase (horseradish) (UniProt P00433). Kind of data set: biotin-HRP bound to glass rods, adsorbed against photoimmobilized streptavidin polymer.
The target is the same in data set [17]. Kind of data set: glass rods with photoimmobilized streptavidin polymer, biotin-HRP at 9 µg/ml 1 h, washed, TMB peroxidase substrate; average of 3.
The target is the same in data set [18]. Kind of data set: glass rods with adsorbed (nonilluminated) streptavidin polymer, biotin-HRP at 9 µg/ml 1 h, washed, TMB peroxidase substrate; average of 3.

Here are results for five substances from US6514734.

Chain of biotin derivatized horseradish peroxidase (horseradish) (P00433 31-338): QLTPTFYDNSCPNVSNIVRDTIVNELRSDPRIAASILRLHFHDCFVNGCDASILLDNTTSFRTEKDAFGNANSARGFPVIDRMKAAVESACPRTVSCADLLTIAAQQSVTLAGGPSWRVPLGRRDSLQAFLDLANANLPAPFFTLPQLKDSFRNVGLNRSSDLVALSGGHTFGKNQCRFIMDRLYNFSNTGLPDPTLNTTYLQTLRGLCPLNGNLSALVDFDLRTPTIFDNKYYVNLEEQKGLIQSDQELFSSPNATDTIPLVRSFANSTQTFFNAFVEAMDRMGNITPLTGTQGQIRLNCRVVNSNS

Regarding “IgG polymer (photoreactive polyacrylamide containing tritiated rabbit anti-glucose oxidase IgG ligands) (antibody)”, the percent greater activity, illuminated against nonilluminated in [1] stood at 61%. In addition, the IgG Activity (A655) in [2] was determined as 1.08 A655; in [3], 0.669 A655.

Consider bovine thrombin, for which the “decrease in antithrombin activity after incorporation of hirudin into the polymer” value in data set [4] is given as “only a 13% decrease in its activity”.

In data set [5], “hirudin polymer (photoreactive polyacrylamide containing hirudin ligands)” showed a specific activity (antithrombin units per mg of hirudin); remaining thrombin activity on chromogenic substrate Chromozym TH of 10200 ATU/mg. Also, the fold greater thrombin binding than uncoated biomaterial in [6] is 200 fold; in data set [7], 23 fold. In addition, the Bound thrombin in data set [8] was 0.2 µg/cm^2; in data set [9] it was 0.28 µg/cm^2; in [10], 0.02 µg/cm^2; in [11] it was 0.014 µg/cm^2; in data set [12], 0.028 µg/cm^2; in [13], 0.137 µg/cm^2. The Bound thrombin is 0.004 µg/cm^2 in [14] and 0.047 µg/cm^2 in [15].

recombinant hirudin: the specific activity (antithrombin units per mg of hirudin); remaining thrombin activity on chromogenic substrate Chromozym TH in data set [5] came out at 11700 ATU/mg.

In data set [16], “streptavidin polymer (photoreactive polyacrylamide containing streptavidin ligands) (from UniProt P22629 37-163)” displayed a fold less peroxidase activity than covalent streptavidin polymer of 3.5 fold. For the same substance, the Absorbance of Biotin-HRP in [17] is 1 absorbance; in [18], 0.285 absorbance.
